Results taken from patent publication US20090305963A1, “Lipocalin 2 for the Treatment, Prevention, and Management of Cancer Metastasis, Angiogenesis, and Fibrosis” (priority 2005, published 2009).

Key:
[1] = test system: 4T1 cells injected subcutaneously; test: In vivo assay for primary tumor growth and pulmonary metastases; parameters: species or system Balb/c mice
Protocol: FIG. 4A is a graph showing the effect of lipocalin 2 on 4T1 primary tumor growth. 4T1 clones (EV, R, and RL) were suspended in PBS and injected subcutaneously in the backs of Balb/c mice. Primary tumor size was calculated based upon measurements at 1, 2, and 3 weeks. […] FIGS. 4E-F show graphs depicting the lung weight (FIG. 4E) and the number of metastatic nodules on the lung surface (FIG. 4F).
10^7 4T1-(EV, R, and RL) cells were injected subcutaneously in Balb/c mice (Asai et al., Int. J. Cancer. 76:418-422, 1998). Though this model is not the standard orthotopic model used, we have used it extensively in our laboratory to study metastases in lung. Primary tumor volume (V)=a·b·b/2, where a represents the […] tumor diameter. After 3 weeks, lung weights and the number of metastatic nodules on the lung surface were evaluated.

VEGF mRNA = VEGF mRNA by semi-quantitative RT-PCR in 4T1 cells; type: cell-based, mouse; conditions: RL vs R cells
Protocol: For VEGF assays, two μg of each RNA sample was reverse transcribed using oligo-dT priming and control reaction was prepared for every sample where the reverse transcriptase was omitted. PCR was performed using Taq DNA polymerase (Qiagen) using primers for mouse VEGF (5′-GTACCTCCACCATGCCAAGT-3′, SEQ ID NO: 10, and 5′-GCGAGTCTGTGTTTTTGCAG-3′ SEQ ID NO: 11), GAPDH (5′-ACAGTCTTCTGAGTGGCA-3′ SEQ ID NO: 6 and 5′-CCCATCACCATCTTCCAG-3′, SEQ ID NO: 7) for DNA amplification. PCR amplification was achieved by initial 94° C. incubation for 5 minutes followed by 25 cycles of 94° C. for 30 seconds, 58° C. for 30 seconds and 72° C. for 30 seconds, with 72° C. for 7 minutes as an extension time. These PCR conditions were established for DNA amplification in the linear range. PCR products were analyzed on 1.5% agarose gels.

AKT = test: Western blot for phospho-AKT; type: cell-based, mouse
From the text: FIGS. 14A-14B are western blots for phospho-AKT (pAKT) showing the downregulation of ras-induced AKT phosphorylation, but not IGF-1 induced AKT phosphorylation, by lipocalin 2. FIG. 14A is a western blot for pAKT showing the lysate from each 4T1 clone (EV, R and RL). FIG. 14B is a western blot for pAKT showing the lysate from EV or RL cells treated with or without IGF-1. GAPDH serves as a loading control.
Cells were stained as described previously (Mammoto et al., Cancer Lett. 184:165-170, 2002) and images acquired with a Delta Vision system (Applied Precision, Issaquah, Wash.) equipped with an Axiovert 100 microscope (Carl Zeiss MicroImaging Inc., Shelton, Conn.) and a Photometrics 300 series scientific-grade cooled CCD camera, reading 12-bit images, and using the 63/1.4 NA plan-Neofluar objective. For immunoprecipitation and immunoblotting, tissues were weighed, diced, soaked in ice cold RIPA buffer with 1 mM phenylmethylsulfonyl fluoride (PMSF), 1 μg/ml Aprotinin, 1 mM Na3VO4, 1 nM NaF, homogenized on ice, centrifuged at 10,000 g for 10 minutes at 4° C., and the supernatant fluid collected as total cell lysate. […] Protein bands were detected using SuperSignal® West Pico Chemiluminescent Substrate (Pierce Chemical Co., Rockford, Ill.) (Hanai et al., J. Cell. Biol. 158:529-539, 2002).

E-cadherin = test: EMT phenotype, E-cadherin and vimentin protein in 4T1 clones (microscopy, western blot); type: cell-based, mouse; conditions: RL cells compared to R cells
From the text: Cells were stained as described previously (Mammoto et al., Cancer Lett. 184:165-170, 2002) and images acquired with a Delta Vision system (Applied Precision, Issaquah, Wash.) equipped with an Axiovert 100 microscope (Carl Zeiss MicroImaging Inc., Shelton, Conn.) and a Photometrics 300 series scientific-grade cooled CCD camera, reading 12-bit images, and using the 63/1.4 NA plan-Neofluar objective. For immunoprecipitation and immunoblotting, tissues were weighed, diced, soaked in ice cold RIPA buffer with 1 mM phenylmethylsulfonyl fluoride (PMSF), 1 μg/ml Aprotinin, 1 mM Na3VO4, 1 nM NaF, homogenized on ice, centrifuged at 10,000 g for 10 minutes at 4° C., and the supernatant fluid collected as total cell lysate. Cultured cells were washed, scraped, and solubilized in a lysis buffer containing 20 mM Tris-HCl pH 7.5, 150 mM NaCl, 0.5% Triton X-100, 1% aprotinin, and 1 mM PMSF. After 20 minutes on ice, the cells were pelleted by centrifugation and the supernatants were used as a cell lysate. Cell lysates or immunoprecipitated cell lysates were separated by PAGE (NuPAGE® gels; Invitrogen, Carlsbad, Calif.), followed by electroblotting onto a polyvinylidenedifluoride membrane (PVDF). Protein bands were detected using SuperSignal® West Pico Chemiluminescent Substrate (Pierce Chemical Co., Rockford, Ill.) (Hanai et al., J. Cell. Biol. 158:529-539, 2002).
To assess the effects of lipocalin 2 on ras-mediated transformation, we chose a syngeneic spontaneously metastasizing murine breast cancer model (4T1 cell line) and accelerated its metastatic potential by introduction of constitutively active mouse H-ras mutant A12 using retrovirus. […] We generated stable clones of 4T1-ras cells expressing lipocalin 2 (RL) by transfection of a lipocalin 2 expression plasmid (lipocalin 2-pcDNA3.1). […] (FIG. 2A, lower panel, and FIG. 2B). […] Expression of E-cadherin in RL cells was dependent on the dose of lipocalin 2-pcDNA3.1 expression vector (transiently introduced in a population of R cells), on a conditioned medium containing lipocalin 2 (FIGS. 2D-E), as well as on recombinant lipocalin 2 protein. R cells shown in FIG. 2D were seeded in a 6-well plate and transfected with lipocalin 2 by FuGene 6 at 40% confluency. After 48 hours, cells were trypsinized, respread on 6-well plate, and transfected again in the same conditions. After 72 hours, cells were harvested and analyzed by western blotting. EV cells in FIG. 2E were seeded in a 6-well plate with 1 ml/well containing 10% FCS with DMEM and 2 ml of CM was added at 10% confluency. After 72 hours, cells were harvested and analyzed by western blotting. CM is a mixture of media from 293T cells transfected with lipocalin 2 and from 293 cells transfected with empty vector (pcDNA3.1).

colon cancer cells = conditions: ectopic expression of lipocalin 2; cited from earlier work
E-cadherin mRNA = E-cadherin mRNA by semi-quantitative RT-PCR; type: cell-based, mouse; conditions: EV, R and RL cells in vitro
Protocol: Total RNA was isolated from 4T1 cells in vitro using the SV Total RNA Isolation system (Promega, Madison, Wis.). Tissue RNA was collected with TRIzol® (GibcoBRL, Gaithersburg, Md.). RT-PCR was performed on the Perkin Elmer GeneAmp PCR system 2400 using Omniscript (Qiagen, Valencia, Calif.) for reverse transcription reaction, and Taq DNA polymerase (Qiagen) and primers for mouse E-cadherin (5′-[…]-3′ and 5′-[…]-3′, SEQ ID NO: 5), GAPDH (5′-ACAGTCTTCTGAGTGGCA-3′, SEQ ID NO: 6, and 5′-CCCATCACCATCTTCCAG-3′, SEQ ID NO: 7) and HA-tagged lipocalin 2 (5′-GGAGTACTTCAAGATCAC-3′, SEQ ID NO: 8 and 5′-[…]-3′, SEQ ID NO: 9) for DNA amplification. The PCR conditions were established for DNA amplification in the linear range. RT-PCR products were analyzed on 1% agarose gels.

B1: lipocalin 2: human lipocalin 2 cDNA (HA tagged) in pcDNA3.1, stably expressed in 4T1-ras cells (RL clone); iron-siderophore binding protein (protein, UniProt P80188 21-198, looked up)
Neutrophil …: QDSTSDLIPAPPLSKVPLQQNFQDNQFQGKWYVVGLAGNAILREDKDPQKMYATIYELKEDKSYNVTSVLFRKKKCDYWIRTFVPGCQPGEFTLGNIKSYPGLTSYLVRVVSTNYNQHAMVFFKKVSQNREYFKITLYGRTKELTSELKENFIRFSKSLGLPENHIVFPVPIDQCIDG
modifications: HA tag
primary tumor size ([1]; R vs RL tumors, 1, 2 and 3 weeks post-inoculation): Primary tumors of R cells were significantly larger than lipocalin 2 cells | reduction of number of metastatic pulmonary nodules ([1]; RL cells compared to R cells, 3 weeks after s.c. injection): 80% | lung weight ([1]; RL compared to R cells, 3 weeks): lung weights were less | ras-augmented VEGF mRNA level (VEGF mRNA): reduced this upregulation | IGF-1-induced phosphorylation of AKT (AKT; EV or RL cells with or without IGF-1): does not downregulate | ras-induced phosphorylation of AKT (AKT; EV, R and RL clones): downregulates | E-cadherin expression (E-cadherin): re-expressed E-cadherin | cell morphology (E-cadherin): reverted to an epithelial morphology | vimentin expression (E-cadherin): suppressed the expression of mesenchymal vimentin | invasiveness of colon cancer cells (colon cancer cells): suppressed the invasiveness of colon cancer cells | E-cadherin mRNA (E-cadherin mRNA): remained unchanged
